According to publication PMC6677593 (Molecular cancer therapeutics, 2019):

How the values were obtained:
[1] = target: LIFR labelled with fluorescent dye (MST target) (UniProt P42702 45-1097, fluorescent dye, NHS chemistry); test: MST
Human LIFR-Fc = target: T1, Human LIFR-Fc (human, UniProt P42702 45-833); test: SPR
T1 sequence (looked up): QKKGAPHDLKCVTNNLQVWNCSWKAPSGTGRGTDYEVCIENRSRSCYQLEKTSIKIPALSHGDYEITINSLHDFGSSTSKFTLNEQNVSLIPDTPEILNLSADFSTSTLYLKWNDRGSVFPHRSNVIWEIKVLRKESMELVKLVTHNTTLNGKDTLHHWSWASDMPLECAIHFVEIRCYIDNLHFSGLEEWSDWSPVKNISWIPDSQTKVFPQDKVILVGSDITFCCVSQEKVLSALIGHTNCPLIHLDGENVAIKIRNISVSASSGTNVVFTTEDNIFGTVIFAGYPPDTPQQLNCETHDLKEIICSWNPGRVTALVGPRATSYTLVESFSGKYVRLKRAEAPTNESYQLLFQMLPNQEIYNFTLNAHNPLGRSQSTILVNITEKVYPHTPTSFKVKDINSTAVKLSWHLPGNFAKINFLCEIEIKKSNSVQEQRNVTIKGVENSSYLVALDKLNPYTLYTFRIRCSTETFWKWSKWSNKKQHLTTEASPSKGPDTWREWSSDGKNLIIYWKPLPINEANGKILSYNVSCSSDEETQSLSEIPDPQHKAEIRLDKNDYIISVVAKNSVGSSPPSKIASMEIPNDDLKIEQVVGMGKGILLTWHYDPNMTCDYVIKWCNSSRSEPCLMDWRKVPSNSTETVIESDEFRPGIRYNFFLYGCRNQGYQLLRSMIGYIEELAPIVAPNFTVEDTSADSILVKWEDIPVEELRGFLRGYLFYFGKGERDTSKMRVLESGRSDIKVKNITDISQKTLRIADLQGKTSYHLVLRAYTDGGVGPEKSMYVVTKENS

Kd [1]: 0.00136 µM
Kd (Human LIFR-Fc): 7 µM
B1: Recombinant human leukemia inhibitory factor (LIF) (ligand)
chain: not shown
